Usually Kd stands for a measure of binding affinity in units of concentration. The term stoichiometry N denotes the number of molecules, sites or subunits per partner or assembly.

The series concerns the molecule itself. Briefly: native MS; rBos d 2 in 10 mM ammonium acetate, pH 6.9; protein (monomer) concentration 0-90 μM; monomer-dimer ratio from ion intensities, fit of free monomer against total protein; dimer to monomers.

B1: recombinant bovine dander lipocalin allergen Bos d 2 (natural protein, bovine (cow), UniProt Q28133 17-172, looked up)
chain: QETPAEIDPSKIPGEWRIIYAAADNKDKIVEGGPLRNYYRRIECINDCESLSITFYLKDQGTCLLLTEVAKRQEGYVYVLEFYGTNTLEVIHVSENMLVTYVENYDGERITKMTEGLAKGTSFTPEELEKYQQLNSERGVPNENIENLIKTDNCPP
modifications: a substantial amount of the molecules contained a pyrrolidone carboxylic acid (PCA) formed by cyclization of the N-terminal glutamine; partly oxidized, probably at a single methionine; two disulfide bonds
notes: Bos d 2, bovine (cow) dander lipocalin allergen; also called rBos d 2
As for B1, the Kd was 340 ± 20 µM and the “stoichiometry N” value was found to be 2.

Values taken from PMC4561914 (Scientific Reports, 2015).
